The results in this text go back to PMC3078326.

For data set [1], the target named is T1, Elk-1 Ets domain (UniProt P19419 5-86).
T1 sequence: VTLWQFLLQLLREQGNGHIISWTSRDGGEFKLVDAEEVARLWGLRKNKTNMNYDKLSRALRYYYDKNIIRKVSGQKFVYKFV
Briefly: EMSA.

Data set [2] addresses T2, PU.1 Ets domain (UniProt P17947 170-253). Briefly: EMSA. In general terms: In EMSA bound probe runs differently from free probe, usually more slowly.
For data set [3], the target named is T2, PU.1 Ets domain. Nature of the data set: competition.

B1: IR5 WT (dsDNA)
DNA 1: CTCACTTCCGCGTCCCGCCGC
DNA 2: GCGGCGGGACGCGGAAGTGAG
As for B1, the binding result is reported as “no binding” in data set [1] and “binds” in data set [2].

B2: IR5 MT1 (dsDNA)
DNA 1: CTCACTTTTGCGTCCCGCCGC
DNA 2: GCGGCGGGACGCAAAAGTGAG
Consider B2, for which the binding result in data set [3] is on record as “no binding”.

B3: IR5 MT2 (dsDNA)
DNA 1: CTCACGGCCGCGTCCCGCCGC
DNA 2: GCGGCGGGACGCGGCCGTGAG
Take B3: the binding result in data set [3] is reported as “no binding”.
